In the supplement of paper PMC9112550, “Optimization of the antimicrobial peptide Bac7 by deep mutational scanning” (BMC Biology, 2022):

Test system: Escherichia coli TOP10
Test: shrunken log2 fold change of peptide-encoding DNA abundance (4.5 h post-induction vs induction); higher = less antimicrobial activity (less host growth inhibition)
Details: time post-induction: 4.5 h; library: site-saturation at positions 5, 18, 19, 20
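Also: peptides expressed intracellularly from a pBAD plasmid library in pooled LB shake-flask culture, induced with 0.3% L-arabinose, DNA abundance read by NGS, three biological replicates, DESeq2 with apeglm shrinkage.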

Sequence | shrunken log2 fold change
RRIRMRPPRLPRPRPRPDDPPRP | 1.6
RRIRQRPPRLPRPRPRPEPTPRP | 0.877
RRIRRRPPRLPRPRPRPRTWPRP | 1.84
RRIRGRPPRLPRPRPRPKLNPRP | 0.69
RRIRFRPPRLPRPRPRPAGWPRP | 0.674
RRIRERPPRLPRPRPRPCFPPRP | -0.166
RRIRMRPPRLPRPRPRPLGSPRP | 0.169
RRIRERPPRLPRPRPRPQCSPRP | -0.442
RRIRRRPPRLPRPRPRPQRYPRP | -0.15
RRIRYRPPRLPRPRPRPWERPRP | 0.0306
RRIRMRPPRLPRPRPRPWMTPRP | 0.0698
RRIRIRPPRLPRPRPRPVCQPRP | -0.202
RRIRVRPPRLPRPRPRPRPTPRP | 0.268
RRIRNRPPRLPRPRPRPETCPRP | 0.262
RRIRHRPPRLPRPRPRPYYFPRP | -0.178
RRIRRRPPRLPRPRPRPAVMPRP | 0.0975
RRIRLRPPRLPRPRPRPSSVPRP | 0.0713
RRIRIRPPRLPRPRPRPSEHPRP | -0.36
RRIRIRPPRLPRPRPRPQYRPRP | -0.0599
RRIRHRPPRLPRPRPRPFDWPRP | -0.0238
RRIRQRPPRLPRPRPRPPWFPRP | -0.018
RRIRLRPPRLPRPRPRPTARPRP | 1.13
RRIRERPPRLPRPRPRPVRSPRP | 0.0119
RRIRKRPPRLPRPRPRPPQDPRP | 0.636
RRIRRRPPRLPRPRPRPDGLPRP | 0.771

Sequence | shrunken log2 fold change
RRIRLRPPRLPRPRPRPMGWPRP | 0.203
RRIRKRPPRLPRPRPRPMPMPRP | 0.00883
RRIRVRPPRLPRPRPRPPHEPRP | 0.42
RRIRQRPPRLPRPRPRPKDEPRP | 0.0571
RRIRFRPPRLPRPRPRPVTVPRP | -0.264
RRIRSRPPRLPRPRPRPCIMPRP | -0.105
RRIRNRPPRLPRPRPRPKKKPRP | 0.011
RRIRDRPPRLPRPRPRPHFHPRP | -0.0477
RRIRNRPPRLPRPRPRPVRWPRP | 0.703
RRIRNRPPRLPRPRPRPFDRPRP | 0.0368
RRIRWRPPRLPRPRPRPWMTPRP | 0.333
RRIRMRPPRLPRPRPRPFKPPRP | -0.119
RRIRGRPPRLPRPRPRPECPPRP | 0.475
RRIRERPPRLPRPRPRPCYSPRP | -0.704
RRIRGRPPRLPRPRPRPVQWPRP | 0.171
RRIRHRPPRLPRPRPRPRSCPRP | -0.0982
RRIRIRPPRLPRPRPRPAEEPRP | -0.084
RRIRFRPPRLPRPRPRPHGHPRP | -0.18
RRIRVRPPRLPRPRPRPRGSPRP | 0.527
RRIRERPPRLPRPRPRPNYTPRP | -0.773
RRIRLRPPRLPRPRPRPSLAPRP | 0.13
RRIRTRPPRLPRPRPRPWACPRP | -0.151
RRIRHRPPRLPRPRPRPVKQPRP | -0.0982
RRIRPRPPRLPRPRPRPYWPPRP | -0.143
RRIRMRPPRLPRPRPRPEKWPRP | 1.56

Sequence | shrunken log2 fold change
RRIRQRPPRLPRPRPRPRLTPRP | 0.178
RRIRYRPPRLPRPRPRPNWTPRP | -0.00491
RRIRVRPPRLPRPRPRPGPFPRP | -0.0278
RRIRHRPPRLPRPRPRPKESPRP | -0.069
RRIRCRPPRLPRPRPRPHAHPRP | -0.182
RRIRNRPPRLPRPRPRPVYYPRP | -0.562
RRIRRRPPRLPRPRPRPCEEPRP | 0.218
RRIRPRPPRLPRPRPRPMDSPRP | -0.0149
RRIRKRPPRLPRPRPRPWIRPRP | -0.336
RRIRKRPPRLPRPRPRPHSCPRP | 0.0828
RRIRTRPPRLPRPRPRPVLCPRP | 0.0726
RRIRGRPPRLPRPRPRPDKMPRP | 0.261
RRIRHRPPRLPRPRPRPTLWPRP | 0.246
RRIRYRPPRLPRPRPRPKDQPRP | -0.48
RRIRVRPPRLPRPRPRPDYTPRP | -0.495
RRIRYRPPRLPRPRPRPCHAPRP | -0.702
RRIRLRPPRLPRPRPRPLEMPRP | 0.203
RRIRPRPPRLPRPRPRPQRAPRP | 0.381
RRIRIRPPRLPRPRPRPENYPRP | -0.405
RRIRERPPRLPRPRPRPHHDPRP | -0.578
RRIRGRPPRLPRPRPRPQFWPRP | 0.553
RRIRMRPPRLPRPRPRPKTCPRP | 0.12
RRIRPRPPRLPRPRPRPVCLPRP | 0.081
RRIRWRPPRLPRPRPRPVNHPRP | -0.191
RRIRQRPPRLPRPRPRPKITPRP | -0.0282
